Results as given in patent US20140371148A1.

Target: ACE from rabbit lung (rabbit) (UniProt P12822)
Test: cell-based or functional assay

ACE from rabbit lung (rabbit), sequence (P12822 34-1310 limits assumed, form in doubt): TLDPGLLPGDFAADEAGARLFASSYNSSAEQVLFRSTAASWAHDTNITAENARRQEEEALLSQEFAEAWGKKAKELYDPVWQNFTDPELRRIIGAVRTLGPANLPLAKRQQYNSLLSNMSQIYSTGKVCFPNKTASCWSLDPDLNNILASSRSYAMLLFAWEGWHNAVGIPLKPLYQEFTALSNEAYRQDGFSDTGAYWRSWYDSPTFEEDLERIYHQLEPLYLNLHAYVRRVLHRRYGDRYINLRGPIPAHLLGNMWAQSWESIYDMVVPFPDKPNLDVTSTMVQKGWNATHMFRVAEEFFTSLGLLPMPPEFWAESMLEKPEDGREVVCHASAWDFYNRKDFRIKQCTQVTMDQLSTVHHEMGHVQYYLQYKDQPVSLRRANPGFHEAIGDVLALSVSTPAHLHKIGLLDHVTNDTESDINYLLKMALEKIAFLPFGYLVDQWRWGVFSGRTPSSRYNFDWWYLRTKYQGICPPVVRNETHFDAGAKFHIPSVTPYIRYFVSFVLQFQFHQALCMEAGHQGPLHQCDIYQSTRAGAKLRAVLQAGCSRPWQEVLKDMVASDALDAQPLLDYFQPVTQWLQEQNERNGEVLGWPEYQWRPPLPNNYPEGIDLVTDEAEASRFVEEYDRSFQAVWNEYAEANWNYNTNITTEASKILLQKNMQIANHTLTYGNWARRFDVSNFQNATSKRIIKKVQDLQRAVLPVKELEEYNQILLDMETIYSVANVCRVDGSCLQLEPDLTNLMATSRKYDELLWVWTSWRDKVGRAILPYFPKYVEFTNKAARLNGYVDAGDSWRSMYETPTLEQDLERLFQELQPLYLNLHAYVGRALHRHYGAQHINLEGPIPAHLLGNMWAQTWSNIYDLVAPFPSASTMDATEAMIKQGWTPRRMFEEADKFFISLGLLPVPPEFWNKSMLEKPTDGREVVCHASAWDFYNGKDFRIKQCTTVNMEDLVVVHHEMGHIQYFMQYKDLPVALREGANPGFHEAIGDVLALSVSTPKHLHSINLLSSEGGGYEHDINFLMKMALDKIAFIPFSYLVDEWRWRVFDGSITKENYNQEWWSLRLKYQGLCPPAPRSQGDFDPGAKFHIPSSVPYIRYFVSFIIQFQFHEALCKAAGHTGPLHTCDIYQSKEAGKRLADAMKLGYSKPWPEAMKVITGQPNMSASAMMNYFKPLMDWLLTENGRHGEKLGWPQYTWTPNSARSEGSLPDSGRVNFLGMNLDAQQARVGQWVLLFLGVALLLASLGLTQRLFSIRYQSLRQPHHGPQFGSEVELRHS

GLP-1-(7-37)-γ-Abu-N^ε2Lys-(Pyr)-WAP-OH (peptide)
ACE inhibition IC50: > 10 µM
